Measured values reported in article PMC6128827.

Molecular target: three-helix bundle composed of syntaxin-1A and SNAP-25 (rat) (UniProt P32851)
Experiment: magnetic tweezers; single pre-assembled SNARE complex held between a PEG-biotin glass surface (NeutrAvidin) and an anti-digoxigenin magnetic bead by two 510-bp DNA handles; force ramps at 1 pN/s, force jumps and 1.2-kHz tracking at 10-16 pN; PBS pH 7.4 with 2.5 uM free SNAP-25; no Cpx

Substance: rat synaptobrevin-2 (2–97, L32C/I97C) (from UniProt P63045 2-97) (domain or fragment)
- average unzipping force (without Cpx): 14.4 pN
